Data: patent publication US20220396635A1 (UNIVERSIT T STUTTGART, published 2022)

T1: CEA (UniProt P06731 35-685)
T1 sequence (looked up): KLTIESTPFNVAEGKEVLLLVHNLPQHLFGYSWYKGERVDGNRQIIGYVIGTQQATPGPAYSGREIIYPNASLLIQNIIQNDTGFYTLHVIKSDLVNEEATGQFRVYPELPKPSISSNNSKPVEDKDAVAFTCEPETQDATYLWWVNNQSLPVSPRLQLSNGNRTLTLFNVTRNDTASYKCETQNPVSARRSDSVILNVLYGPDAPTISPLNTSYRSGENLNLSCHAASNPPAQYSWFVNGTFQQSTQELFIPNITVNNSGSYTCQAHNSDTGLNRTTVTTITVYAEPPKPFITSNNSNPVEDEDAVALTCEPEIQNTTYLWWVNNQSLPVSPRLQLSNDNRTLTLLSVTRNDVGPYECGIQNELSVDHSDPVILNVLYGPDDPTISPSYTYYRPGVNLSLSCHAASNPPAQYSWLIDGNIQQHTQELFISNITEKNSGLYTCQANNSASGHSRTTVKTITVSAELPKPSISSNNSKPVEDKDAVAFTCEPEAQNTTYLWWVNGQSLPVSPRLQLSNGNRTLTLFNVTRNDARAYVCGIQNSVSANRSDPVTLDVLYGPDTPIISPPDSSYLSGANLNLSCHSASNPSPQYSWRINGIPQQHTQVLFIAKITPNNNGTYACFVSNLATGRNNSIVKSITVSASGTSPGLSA

B1: scDb/scFv-Fc (1-2)+1, trivalent bispecific anti-CEAxanti-CD3 (bispecific antibody)
chain 1: QVKLQQSGAELVRSGTSVKLSCTASGFNIKDSYMHWLRQGPEQGLEWIGWIDPENGDTEYAPKFQGKATFTTDTSSNTAYLQLSSLTSEDTAVYYCNEGTPTGPYYFDYWGQGTTVTVSSGGGGSDIQMTQSPSSLSASVGDRVTITCRASQDIRNYLNWYQQKPGKAPKLLIYYTSRLHSGVPSRFSGSGSGTDFTFTISSLQPEDIATYYCQQGNTLPWTFGQGTKLEIKRGGGGSGGGGSGGGGSQVQLVQSGAEVKKPGSSVKVSCKASGGTFSGYTMNWVRQAPGQGLEWMGLINPYKGVSTYNGKFKDRVTITADKSTSTAYMELSSLRSEDTAVYYCARSGYYGDSDWYFDVWGQGTLVTVSSGGGGSDIELTQSPAIMSASPGEKVTITCSASSSVSYMHWFQQKPGTSPKLWIYSTSNLASGVPARFSGSGSGTSYSLTISRMEAEDAATYYCQQRSSYPLTFGAGTKLELKRAAADKTHTCPPCPAPPVAGPSVFLFPPKPKDTLMISRTPEVTCVVVDVSHEDPEVKFNWYVDGVEVHNAKTKPREEQYNSTYRVVSVLTVLHQDWLNGKEYKCKVSNKGLPSSIEKTISKAKGQPREPQVCTLPPSRDELTKNQVSLSCAVKGFYPSDIAVEWESNGQPENNYKTTPPVLDSDGSFFLVSKLTVDKSRWQQGNVFSCSVMHEALHNHYTQKSLSLSPGK
chain 2: QVKLQQSGAELVRSGTSVKLSCTASGFNIKDSYMHWLRQGPEQGLEWIGWIDPENGDTEYAPKFQGKATFTTDTSSNTAYLQLSSLTSEDTAVYYCNEGTPTGPYYFDYWGQGTTVTVSSGGGGSGGGGSGGGGSDIELTQSPAIMSASPGEKVTITCSASSSVSYMHWFQQKPGTSPKLWIYSTSNLASGVPARFSGSGSGTSYSLTISRMEAEDAATYYCQQRSSYPLTFGAGTKLELKRAAADKTHTCPPCPAPPVAGPSVFLFPPKPKDTLMISRTPEVTCVVVDVSHEDPEVKFNWYVDGVEVHNAKTKPREEQYNSTYRVVSVLTVLHQDWLNGKEYKCKVSNKGLPSSIEKTISKAKGQPREPQVYTLPPCRDELTKNQVSLWCLVKGFYPSDIAVEWESNGQPENNYKTTPPVLDSDGSFFLYSKLTVDKSRWQQGNVFSCSVMHEALHNHYTQKSLSLSPGK
notes: also called scDbCEAxhuU3-Fc(hole)Δab + scFvCEA-Fc(knob)Δab
B2: scDb/Fab-Fc (1-2)+1, trivalent bispecific anti-CEAxanti-CD3 (bispecific antibody, human IgG1, kappa)
chain: B1 chain 1
heavy: QVKLQQSGAELVRSGTSVKLSCTASGFNIKDSYMHWLRQGPEQGLEWIGWIDPENGDTEYAPKFQGKATFTTDTSSNTAYLQLSSLTSEDTAVYYCNEGTPTGPYYFDYWGQGTTVTVSSASTKGPSVFPLAPSSKSTSGGTAALGCLVKDYFPEPVTVSWNSGALTSGVHTFPAVLQSSGLYSLSSVVTVPSSSLGTQTYICNVNHKPSNTKVDKKVEPKSCDKTHTCPPCPAPPVAGPSVFLFPPKPKDTLMISRTPEVTCVVVDVSHEDPEVKFNWYVDGVEVHNAKTKPREEQYNSTYRVVSVLTVLHQDWLNGKEYKCKVSNKGLPSSIEKTISKAKGQPREPQVYTLPPCRDELTKNQVSLWCLVKGFYPSDIAVEWESNGQPENNYKTTPPVLDSDGSFFLYSKLTVDKSRWQQGNVFSCSVMHEALHNHYTQKSLSLSPGK
light: DIELTQSPAIMSASPGEKVTITCSASSSVSYMHWFQQKPGTSPKLWIYSTSNLASGVPARFSGSGSGTSYSLTISRMEAEDAATYYCQQRSSYPLTFGAGTKLELKRRTVAAPSVFIFPPSDEQLKSGTASVVCLLNNFYPREAKVQWKVDNALQSGNSQESVTEQDSKDSTYSLSSTLTLSKADYEKHKVYACEVTHQGLSSPVTKSFNRGEC
notes: also called scDbCEAxhuU3-Fc(hole)Δab + VHCEA-CH1-Fc(knob)Δab + VLCEA-CLκ
B3: scDb/scFv-Fc (2-1)+1, trivalent bispecific anti-CEAxanti-CD3 (bispecific antibody)
chain 1: QVQLVQSGAEVKKPGSSVKVSCKASGGTFSGYTMNWVRQAPGQGLEWMGLINPYKGVSTYNGKFKDRVTITADKSTSTAYMELSSLRSEDTAVYYCARSGYYGDSDWYFDVWGQGTLVTVSSGGGGSDIELTQSPAIMSASPGEKVTITCSASSSVSYMHWFQQKPGTSPKLWIYSTSNLASGVPARFSGSGSGTSYSLTISRMEAEDAATYYCQQRSSYPLTFGAGTKLELKRGGGGSGGGGSGGGGSQVKLQQSGAELVRSGTSVKLSCTASGFNIKDSYMHWLRQGPEQGLEWIGWIDPENGDTEYAPKFQGKATFTTDTSSNTAYLQLSSLTSEDTAVYYCNEGTPTGPYYFDYWGQGTTVTVSSGGGGSDIQMTQSPSSLSASVGDRVTITCRASQDIRNYLNWYQQKPGKAPKLLIYYTSRLHSGVPSRFSGSGSGTDFTFTISSLQPEDIATYYCQQGNTLPWTFGQGTKLEIKRAAADKTHTCPPCPAPPVAGPSVFLFPPKPKDTLMISRTPEVTCVVVDVSHEDPEVKFNWYVDGVEVHNAKTKPREEQYNSTYRVVSVLTVLHQDWLNGKEYKCKVSNKGLPSSIEKTISKAKGQPREPQVCTLPPSRDELTKNQVSLSCAVKGFYPSDIAVEWESNGQPENNYKTTPPVLDSDGSFFLVSKLTVDKSRWQQGNVFSCSVMHEALHNHYTQKSLSLSPGK
chain 2: B1 chain 2
notes: also called scDbhuU3xCEA-Fc(hole)Δab + scFvCEA-Fc(knob)Δab
B4: scDb/Fab-Fc (2-1)+1, trivalent bispecific anti-CEAxanti-CD3 (bispecific antibody, human IgG1, kappa)
chain: B3 chain 1
heavy: B2 heavy
light: B2 light
notes: also called scDbhuU3xCEA-Fc(hole)Δab + VHCEA-CH1-Fc(knob)Δab + VLCEA-CLκ

The binders below were run against T1, CEA (assay: cell-based or functional assay).

Binder	EC50 of PBMC cytotoxicity on LIM1215 cells, E:T 10:1 [nM]
B1	0.5
B2	0.4
B3	0.3
B4	1.2

These binders were tested against T2, CD3 (UniProt P07766 23-207) (assay: flow cytometry, serial dilution on Jurkat cells (CD3-expressing), PE anti-human Fc detection).
T2 construct: whole, on cells; on cells it stands in the TCR/CD3 complex; also called CD3 on Jurkat cells
Method: (§1) Binding of trivalent, bispecific fusion proteins to CEA-expressing (LIM1215) and CD3-expressing (Jurkat) cell lines was analyzed by flow cytometry. 2×10⁵ cells/well were incubated with a serial dilution of trivalent, bispecific antibodies for 1 h at 4° C. followed by detection using a PE-conjugated anti-human Fc antibody (Jackson ImmunoResearch Laboratories Inc). […] Regarding the CEA-expressing cell line LIM1215, the trivalent, bispecific antibodies bound with EC₅₀ values in the nanomolar range (FIG. 16A) (Table 9).

Binder	EC50 [nM]
B1	7.7
B2	5.7
B3	7.9
B4	6.1

Biological target: T1, CEA
Experiment: cell-based or functional assay
Remark: another data set of the same source

Binder	EC50 of IL-2 release, PBMCs co-cultured with LIM1215 cells [nM]
B1	1.4
B2	0.5
B3	1.4
B4	3.5

These binders were tested against T1, CEA (assay: flow cytometry, serial dilution on LIM1215 cells (CEA-expressing), PE anti-human Fc detection).
Method: as §1

Binder	EC50 [nM]
B1	1.6
B2	2.5
B3	1.7
B4	2.1
